Measured values as given in patent US20210309732A1 (ELIXIRON IMMUNOTHERAPEUTICS HONG KONG, published 2021).
Residue numbers refer to the chain shown, from its start. Each block holds one binder with its values, some of them ahead of it.

Columns and labels:
recombinant human GM-CSF [1] = target: T1, recombinant human GM-CSF (human, UniProt P04141 18-144); assay: Biacore
T1 construct: also called rhGM-CSF; CSF2

recombinant human GM-CSF [2] = target: T1, recombinant human GM-CSF; assay: cell-based or functional assay
recombinant human GM-CSF [3] = target: T1, recombinant human GM-CSF; assay: ELISA on coated rhGM-CSF, UBA relative to 1D2
Method in brief: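 Antibody clones carrying SDR point mutants in VH or VL, each paired with the wild-type chain, were expressed in HEK293 cells. Culture media diluted 1:12000 were bound to plates coated with rhGM-CSF at 1 μg/mL for 1 h at room temperature. Detection used HRP anti-human antibody and Amplex Red fluorescence (Ex530/Em590), with UBA = fluorescence signal/dilution factor.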

T1 sequence (P04141 18-144 limits assumed): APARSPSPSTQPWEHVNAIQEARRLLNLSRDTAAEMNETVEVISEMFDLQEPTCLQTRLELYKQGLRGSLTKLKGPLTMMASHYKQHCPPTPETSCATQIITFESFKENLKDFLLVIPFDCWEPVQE

binding affinity % of 1D2 (recombinant human GM-CSF [3]): 110%
B7: 1D2 SDR mutant LV32E (antibody, IgG1, V domains shown)
VH: QVQLVQSGAEVKKPGASVKVSCEASGYTFTDKYLHWVRQAPGQGLEWMAWINPKSGGTFYAQNFKGRVTVTRDTSINTAYLELTSLRLDDTSTYYCARGRDYYDQGAADLWGQGTMVTVSS
VL: DIQLTQSPSSLSASVGDRVTITCRASQGINSELAWYQQKPGKAPKLLLYAASKLESGVPSRFSGSGSGTDYTLTISSLQPEDFGTYYCQQYYSPVRTFGQGTKVEIKR
notes: also called X8 E

binding affinity % of 1D2 (recombinant human GM-CSF [3]): 167%
B9: 1D2 SDR mutant LV32L (antibody, IgG1, V domains shown)
VH: B7 VH
VL: B7 VL with E32L
notes: also called X8 L

binding affinity % of 1D2 (recombinant human GM-CSF [3]): 47%
B12: 1D2 SDR mutant LV95D (antibody, IgG1, V domains shown)
VH: B7 VH
VL: B7 VL with E32V, V95D
notes: also called X10 D

binding affinity % of 1D2 (recombinant human GM-CSF [3]): 581%
B14: 1D2 SDR mutant LV32P (antibody, IgG1, V domains shown)
VH: B7 VH
VL: B7 VL with E32P
notes: also called X8 P

IC50 (M), inhibition of GM-CSF induced TF-1 cell proliferation (FIG. 5B) (recombinant human GM-CSF [2]): 1.49e-09 M | binding affinity % of 1D2 (recombinant human GM-CSF [3]): 60%
B15: 1D2 SDR mutant LP94N (antibody, IgG1, V domains shown)
VH: B7 VH
VL: B7 VL with E32V, P94N
notes: also called X9 N

binding affinity % of 1D2 (recombinant human GM-CSF [3]): 46%
B18: 1D2 SDR mutant LV95P (antibody, IgG1, V domains shown)
VH: B7 VH
VL: B7 VL with E32V, V95P
notes: also called X10 P

binding affinity % of 1D2 (recombinant human GM-CSF [3]): 45%
B20: 1D2 SDR mutant LV95R (antibody, IgG1, V domains shown)
VH: B7 VH
VL: B7 VL with E32V, V95R
notes: also called X10 R

binding affinity % of 1D2 (recombinant human GM-CSF [3]): 114%
B22: 1D2 SDR mutant LV32Y (antibody, IgG1, V domains shown)
VH: B7 VH
VL: B7 VL with E32Y
notes: also called X8 Y

binding affinity % of 1D2 (recombinant human GM-CSF [3]): 40%
B23: 1D2 SDR mutant LV95E (antibody, IgG1, V domains shown)
VH: B7 VH
VL: B7 VL with E32V, V95E
notes: also called X10 E

binding affinity % of 1D2 (recombinant human GM-CSF [3]): 297%
B24: 1D2 SDR mutant LV32G (antibody, IgG1, V domains shown)
VH: B7 VH
VL: B7 VL with E32G
notes: also called X8 G

binding affinity % of 1D2 (recombinant human GM-CSF [3]): 109%
B25: 1D2 SDR mutant LV32F (antibody, IgG1, V domains shown)
VH: B7 VH
VL: B7 VL with E32F
notes: also called X8 F

IC50 (M), inhibition of GM-CSF induced TF-1 cell proliferation (FIG. 5B) (recombinant human GM-CSF [2]): 2.48e-09 M | binding affinity % of 1D2 (recombinant human GM-CSF [3]): 1030%
B26: 1D2 SDR mutant LV32R (antibody, IgG1, V domains shown)
VH: B7 VH
VL: B7 VL with E32R
notes: also called X8 R

binding affinity % of 1D2 (recombinant human GM-CSF [3]): 128%
B30: 1D2 SDR mutant LV32H (antibody, IgG1, V domains shown)
VH: B7 VH
VL: B7 VL with E32H
notes: also called X8 H

binding affinity % of 1D2 (recombinant human GM-CSF [3]): 41%
B33: 1D2 SDR mutant LV95L (antibody, IgG1, V domains shown)
VH: B7 VH
VL: B7 VL with E32V, V95L
notes: also called X10 L

binding affinity % of 1D2 (recombinant human GM-CSF [3]): 46%
B36: 1D2 SDR mutant LV95C (antibody, IgG1, V domains shown)
VH: B7 VH
VL: B7 VL with E32V, V95C
notes: also called X10 C

binding affinity % of 1D2 (recombinant human GM-CSF [3]): 146%
B37: 1D2 SDR mutant LP94R (antibody, IgG1, V domains shown)
VH: B7 VH
VL: B7 VL with E32V, P94R
notes: also called X9 R

The next lines start with the binder.

B1: 1D2 SDR mutant HK54G (antibody, IgG1, V domains shown)
VH: B7 VH with K54G
VL: B7 VL with E32V
notes: also called X3 G
Ka (recombinant human GM-CSF [1]): 2.89e+09 M⁻¹ | Kd (recombinant human GM-CSF [1]): 0.346 nM | koff (recombinant human GM-CSF [1]): 0.000448 s⁻¹ | kon (recombinant human GM-CSF [1]): 1.3e+06 M⁻¹ s⁻¹ | IC50 (M), inhibition of GM-CSF induced TF-1 cell proliferation (FIG. 5B) (recombinant human GM-CSF [2]): 1.87e-09 M | binding affinity % of 1D2 (recombinant human GM-CSF [3]): 114%

B2: 1D2 SDR mutant HY103S (antibody, IgG1, V domains shown)
VH: B7 VH with Y103S
VL: B7 VL with E32V
notes: also called X6 S
binding affinity % of 1D2 (recombinant human GM-CSF [3]): 85%

B3: 1D2 SDR mutant HY103W (antibody, IgG1, V domains shown)
VH: B7 VH with Y103W
VL: B7 VL with E32V
notes: also called X6 W
binding affinity % of 1D2 (recombinant human GM-CSF [3]): 139%

B4: 1D2 SDR mutant HY102T (antibody, IgG1, V domains shown)
VH: B7 VH with Y102T
VL: B7 VL with E32V
notes: also called X5 T
binding affinity % of 1D2 (recombinant human GM-CSF [3]): 56%

B5: 1D2 SDR mutant HQ105N (antibody, IgG1, V domains shown)
VH: B7 VH with Q105N
VL: B7 VL with E32V
notes: also called X7 N
IC50 (M), inhibition of GM-CSF induced TF-1 cell proliferation (FIG. 5B) (recombinant human GM-CSF [2]): 7.67e-09 M | binding affinity % of 1D2 (recombinant human GM-CSF [3]): 156%

B6: 1D2 SDR mutant HY103R (antibody, IgG1, V domains shown)
VH: B7 VH with Y103R
VL: B7 VL with E32V
notes: also called X6 R
Ka (recombinant human GM-CSF [1]): 2.42e+09 M⁻¹ | Kd (recombinant human GM-CSF [1]): 0.414 nM | koff (recombinant human GM-CSF [1]): 0.00057 s⁻¹ | kon (recombinant human GM-CSF [1]): 1.38e+06 M⁻¹ s⁻¹ | IC50 (M), inhibition of GM-CSF induced TF-1 cell proliferation (FIG. 5B) (recombinant human GM-CSF [2]): 3.47e-09 M | binding affinity % of 1D2 (recombinant human GM-CSF [3]): 115%

B8: 1D2 SDR mutant HY103H (antibody, IgG1, V domains shown)
VH: B7 VH with Y103H
VL: B7 VL with E32V
notes: also called X6 H
binding affinity % of 1D2 (recombinant human GM-CSF [3]): 109%

B10: 1D2 SDR mutant HY103Q (antibody, IgG1, V domains shown)
VH: B7 VH with Y103Q
VL: B7 VL with E32V
notes: also called X6 Q
binding affinity % of 1D2 (recombinant human GM-CSF [3]): 74%

B11: 1D2 SDR mutant HY103L (antibody, IgG1, V domains shown)
VH: B7 VH with Y103L
VL: B7 VL with E32V
notes: also called X6 L
binding affinity % of 1D2 (recombinant human GM-CSF [3]): 67%

B13: 1D2 SDR mutant LP94C (antibody, IgG1, V domains shown)
VH: B7 VH
VL: B7 VL with E32V, P94C
notes: also called X9 C
binding affinity % of 1D2 (recombinant human GM-CSF [3]): 253%

B16: 1D2 SDR mutant HY103K (antibody, IgG1, V domains shown)
VH: B7 VH with Y103K
VL: B7 VL with E32V
notes: also called X6 K
binding affinity % of 1D2 (recombinant human GM-CSF [3]): 143%

B17: 1D2 SDR mutant HY103V (antibody, IgG1, V domains shown)
VH: B7 VH with Y103V
VL: B7 VL with E32V
notes: also called X6 V
binding affinity % of 1D2 (recombinant human GM-CSF [3]): 88%

B19: 1D2 SDR mutant HY103G (antibody, IgG1, V domains shown)
VH: B7 VH with Y103G
VL: B7 VL with E32V
notes: also called X6 G
binding affinity % of 1D2 (recombinant human GM-CSF [3]): 138%

B21: 1D2 SDR mutant HY102W (antibody, IgG1, V domains shown)
VH: B7 VH with Y102W
VL: B7 VL with E32V
notes: also called X5 W
binding affinity % of 1D2 (recombinant human GM-CSF [3]): 82%

B27: 1D2 SDR mutant HY103A (antibody, IgG1, V domains shown)
VH: B7 VH with Y103A
VL: B7 VL with E32V
notes: also called X6 A
binding affinity % of 1D2 (recombinant human GM-CSF [3]): 88%

B28: 1D2 SDR mutant HY103D (antibody, IgG1, V domains shown)
VH: B7 VH with Y103D
VL: B7 VL with E32V
notes: also called X6 D
binding affinity % of 1D2 (recombinant human GM-CSF [3]): 134%

B29: 1D2 SDR mutant HY103T (antibody, IgG1, V domains shown)
VH: B7 VH with Y103T
VL: B7 VL with E32V
notes: also called X6 T
binding affinity % of 1D2 (recombinant human GM-CSF [3]): 104%

B31: 1D2 SDR mutant HY102V (antibody, IgG1, V domains shown)
VH: B7 VH with Y102V
VL: B7 VL with E32V
notes: also called X5 V
binding affinity % of 1D2 (recombinant human GM-CSF [3]): 71%

B32: 1D2 SDR mutant HY103F (antibody, IgG1, V domains shown)
VH: B7 VH with Y103F
VL: B7 VL with E32V
notes: also called X6 F
binding affinity % of 1D2 (recombinant human GM-CSF [3]): 81%

B34: 1D2 SDR mutant HY103N (antibody, IgG1, V domains shown)
VH: B7 VH with Y103N
VL: B7 VL with E32V
notes: also called X6 N
Ka (recombinant human GM-CSF [1]): 2.5e+09 M⁻¹ | Kd (recombinant human GM-CSF [1]): 0.4 nM | koff (recombinant human GM-CSF [1]): 0.000669 s⁻¹ | kon (recombinant human GM-CSF [1]): 1.67e+06 M⁻¹ s⁻¹ | IC50 (M), inhibition of GM-CSF induced TF-1 cell proliferation (FIG. 5A) (recombinant human GM-CSF [2]): 3.41e-09 M | IC50 (M), inhibition of GM-CSF induced TF-1 cell proliferation (FIG. 5B) (recombinant human GM-CSF [2]): 3.6e-09 M | binding affinity % of 1D2 (recombinant human GM-CSF [3]): 130%

B35: 1D2 SDR mutant HY103P (antibody, IgG1, V domains shown)
VH: B7 VH with Y103P
VL: B7 VL with E32V
notes: also called X6 P
binding affinity % of 1D2 (recombinant human GM-CSF [3]): 141%

B38: 1D2 SDR mutant HY103M (antibody, IgG1, V domains shown)
VH: B7 VH with Y103M
VL: B7 VL with E32V
notes: also called X6 M
binding affinity % of 1D2 (recombinant human GM-CSF [3]): 94%
